This is an account of results in US20230152323A1 (NORDIC BIOSCIENCE A S, published 2023).

No end group written: not given here.

Experiment [1] addresses T1, Recombinant human SPARC, full-length, uncleaved (human, UniProt P09486 18-303).
T1 construct: Incubated in MMP buffer without protease and then measured in the SPARC-M ELISA; also called recombinant full-length SPARC; osteonectin
T1 sequence (looked up): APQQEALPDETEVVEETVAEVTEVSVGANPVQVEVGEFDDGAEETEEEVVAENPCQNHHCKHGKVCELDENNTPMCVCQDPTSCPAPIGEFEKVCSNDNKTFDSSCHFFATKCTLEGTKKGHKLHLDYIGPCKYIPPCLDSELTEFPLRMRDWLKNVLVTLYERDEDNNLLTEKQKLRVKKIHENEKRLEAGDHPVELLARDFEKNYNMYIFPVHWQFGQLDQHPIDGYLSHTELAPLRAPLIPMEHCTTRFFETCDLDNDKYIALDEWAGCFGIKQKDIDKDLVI
In words: competitive SPARC-M ELISA on recombinant SPARC incubated without protease.

Experiment [2] has as its target T2, Von Willebrand factor (VWF) peptide LLARDCQDHS (human).
T2 construct: A peptide was tested, not the whole protein
T2 peptide: LLARDCQDHS
In words: competitive SPARC-M ELISA, peptide as competitor. On the procedure: (§1) The specificity of the antibody was tested by including an elongated standard peptide with an additional amino acid added to the N-terminal of the target peptide sequence ([…]; SEQ ID NO: 2), a truncated standard peptide with a removal of the first N-terminal amino acid ([…]; SEQ ID NO: 3) as well as a non-sense standard peptide ([…]; SEQ ID NO: 4) and a non-sense biotinylated coating peptide ([…]-biotin; SEQ ID NO: 5) in the assay validation. Four peptides (Von Willebrand factor, glucagon, SPARC-like protein 1 and ADAMTS15) with one amino acid mismatch compared to the first six amino acids in the target sequence were also included to further test the antibody specificity. The immunogenic peptide ([…]-GGC-KLH; SEQ ID NO: 6) was generated by covalently cross-linking the standard peptide to Keyhole Limpet Hemocyanin (KLH) carrier protein using Succinimidyl 4-(N-maleimidomethyl)cyclohexane-1-carboxylate, SMCC (Thermo Scientific, Waltham, MA, USA, cat.no. 22336). Glycine and cysteine residues were added at the C-terminal end to ensure right linking of the carrier protein.
(§2) A 96-well streptavidin-coated microtiter plate was coated with 1.1 ng/mL biotinylated coating peptide dissolved in assay buffer (50 mM Tris-BTB, 4 g/L NaCl, pH 8.0) and incubated for 30 min. at 20° C. in darkness shaking (300 rpm). Twenty µL standard peptide or pre-diluted serum (1:4) were added to appropriate wells, followed by the addition of 100 µL monoclonal antibody dissolved in assay buffer to a concentration of 14 ng/mL to each well and incubated 1 hour at 20° C. in darkness shaking (300 rpm). One hundred µL of goat anti-mouse POD-conjugated IgG antibody (Thermo Scientific, Waltham, MA, USA, cat. #31437) diluted 1:6000 in assay buffer was added to each well and incubated 1 hour at 20° C. in darkness shaking. All incubation steps were followed by five washes in washing buffer (20 mM Tris, 50 mM NaCl, pH 7.2). Finally, 100 µL tetramethylbenzidine (TMB) (cat. 438OH, Kem-En-Tec Diagnostics, Denmark) was added to each well and the plate was incubated for 15 minutes at 20° C. in darkness shaking. The enzymatic reaction was stopped by adding 0.18 M H₂SO₄ and absorbance was measured at 450 nm with 650 nm as reference. A calibration curve was plotted using a 4-parameter logistic curve fit. Data were analyzed using the SoftMax Pro v.6.3 software.
On the technique in general: ELISA stands for enzyme-linked immunosorbent assay.

Experiment [3] deals with T3, Glucagon (GCG) peptide LAARDFINWL (human).
T3 construct: A peptide was tested, not the whole protein
T3 peptide: LAARDFINWL
Put plainly: competitive SPARC-M ELISA, peptide as competitor. On the procedure: as §1, §2

The target of experiment [4] is T4, ADAMTS15 (A15) peptide LLARDQCNLH (human).
T4 construct: A peptide was tested, not the whole protein
T4 peptide: LLARDQCNLH
Put plainly: competitive SPARC-M ELISA, peptide as competitor. On the procedure: as §1, §2

Experiment [5] deals with T5, SPARC-like protein 1 (SLP1) peptide LLLRDFKKNY (human).
T5 construct: A peptide was tested, not the whole protein
T5 peptide: LLLRDFKKNY
In words: competitive SPARC-M ELISA, peptide as competitor. As for the experimental part: as §1, §2

The target in experiment [6] is T6, Non-sense coating peptide VPKDLPPDTT-biotin.
T6 construct: Held on streptavidin-coated plates; also called non-sense biotinylated coating peptide
T6 peptide: VPKDLPPDTT-biotin
Put plainly: ELISA, peptide coated on a streptavidin plate. As for the experimental part: as §1, with “The target sequence was used as the standard peptide ([…]; SEQ ID NO: 1). A biotinylated peptide ([…]-K-biotin; SEQ ID NO:7) was included as a coating peptide with addition of a lysine residue to the C-terminal end to ensure biotin linking. The specificity” for “The specificity”, “carrier protein. […]” for “carrier protein.”

Experiment [7] addresses T7, Standard peptide LLARDFEKNY (human).
T7 construct: Synthetic peptide from Genscript with a free N-terminus; also called calibration peptide
T7 peptide: LLARDFEKNY
In words: preliminary competitive ELISA, hybridoma supernatant, 10 ng/mL biotinylated coating peptide. On the procedure:
The reactivity of the monoclonal antibody was evaluated by displacement using human serum samples and the standard peptide ([…]; SEQ ID NO: 1) in a preliminary ELISA using 10 ng/mL biotinylated coating peptide on streptavidin-coated microtiter plates (Roche, Basel, Switzerland, cat. #11940279) and the supernatant from the antibody producing monoclonal hybridoma cells. The clone with the best reactivity towards the standard peptide was purified using protein-G-columns according to the manufacturer’s instructions (GE Healthcare Life Sciences, Little Chalfont, UK, cat. #17-0404-01 ).

B1: SPARC-M monoclonal antibody (antibody, mouse IgG1, kappa, V domains shown)
VH: EVKLVESGGGLVKPGGSLKLSCAASGFTFSRNAMSWVRQTPEKRLEWVASISTSDNTYYPDSVKGRFTISKDNARNILYLQMSSLRSEDTAMYYCASGFDVGAYWGQGTLVTVSA
VL: DVLMTQTPLSLPVSLGDQASISCRSSQSIVHSNGNTYLEWYLQKPGQSPKLLIYKVSNRFSGVPDRFSGSGSGTDFTLKISRVDTEDLGVYYCFQGSHVPLTFGAGTKLELKR
notes: also called the antibody; the selected antibody
Take B1: the binding result in experiment [1], in experiment [2], in experiment [3], in experiment [4], in experiment [5] and in experiment [6] was “no binding” in each case. Besides, in experiment [7], the binding result is given as “binds”.
